Data as given in US20090281024A1 (RAPTOR PHARMACEUTICALS, published 2009).

Legend:
MegaRAP1 d3 [1] = molecular target: T1, MegaRAP1 d3 (human, UniProt P30533 235-353); assay: solid-phase assay, coated CR protein
T1 construct: range 201-319 (mature RAP numbering); d3 of the variant selected on LRP2 CR89; also called RAPv2A d3; RAP v2A; not shown: N-terminal hexahistidine and S-peptide tags of pET30(+)a
T1 sequence (looked up): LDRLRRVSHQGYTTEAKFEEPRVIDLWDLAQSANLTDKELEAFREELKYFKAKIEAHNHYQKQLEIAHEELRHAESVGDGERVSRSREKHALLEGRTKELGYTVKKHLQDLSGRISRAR
Protocol: (§1) Wells were washed with TBSTC and bound ligands detected with polyclonal anti-RAP (BP41/42, 1:1,000, BioMarin). Excess primary antibody was removed and wells washed before incubation with the secondary antibody, HRP-conjugated goat anti rabbit IgG (Bio-Rad). After washing, TMB substrate solutions (Bio-Rad) were added to detect HRP. Color development was stopped with 1N HCl. Absorption at 450 nm was measured with a microplate spectrophotometer (Molecular Devices). Data were plotted and Kd values derived by non-linear regression with the assumption of single-site binding (GraphPad Prism).
One premise of this work was that amino acids at A, C, A′ and C′ within the calcium-binding loops of a CR pair were key determinants of binding affinity for RAP and would be similarly important for binding of RAP variants. To test this idea, mutant LRP2 CR89 were prepared in which the native, non-canonical residues at these positions were sequentially substituted with the non-native, canonical residues. As defined above, the A, C, A′, C′ string for LRP2 CR89 is YVWR. Mutants included LRP2 CR89Y1042W (WVWR), LRP2 CR89V1047D (YDWR), LRP2 CR89R1088D (YVWD), LRP2 CR89V1047D R1088D (YDWD), LRP2 CR89 Y1042W V1047D R1088D (WDWD), LRP2 CR89Y1042W V1047D (WDWR), LRP2 CR89Y1042W R1088D (WVWD). Binding to both RAP d3 and MegaRAP1 d3 were measured for each LRP2 CR89 mutant by solid-phase assay. […] The A′ position in LRP2 CR89 is a tryptophan, the canonical residue for wild-type RAP d3 binding, and was not mutated in our studies. […] We did see a small increase in binding of RAP d3 to the WVWD and WDWD combinations at A, C, A′ and C′.

[2] = molecular target: T2, RAP d3 E251K, K256A, K270E (human, UniProt P30533 235-353); assay: solid-phase assay, coated CR protein
T2 construct: range 201-319 (mature RAP numbering); Forward mutant of m1; same construct; also called RAP E251K, K256A, K270E; not shown: N-terminal hexahistidine and S-peptide tags of pET30(+)a
T2 sequence (looked up): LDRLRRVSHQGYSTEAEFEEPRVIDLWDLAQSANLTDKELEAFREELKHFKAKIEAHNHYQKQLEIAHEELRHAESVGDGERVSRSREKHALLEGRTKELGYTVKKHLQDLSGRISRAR
Protocol: as §1
(§2) Next, the binding of RAP d3 and MegaRAP1 d3 proteins to LRP1 CR3-5 and LRP2 CR89 was assessed. […] In all cases, 10 mM EGTA prevented binding of both RAP d3 and MegaRAP1 d3 to CR proteins. Since calcium was the only divalent metal ion present in the binding buffer, this observation is consistent with both RAP d3 and MegaRAP1 d3 binding to calcium-loaded CR pairs. […] Therefore, wild-type RAP d3 and MegaRAP1 d3 have inverted binding preferences for these two receptor fragments.

MegaRAP1 d3 [3] = molecular target: T1, MegaRAP1 d3; assay: solid-phase assay, coated CR protein; remark: listed apart in the source
Protocol: as §1, §2

RAP d3 E251K = molecular target: T3, RAP d3 E251K (human, UniProt P30533 235-353); assay: solid-phase binding assay: LRP2 CR89 coated on the plate, d3 ligand in solution, anti-RAP detection, absorbance
T3 construct: range 201-319 (mature RAP numbering); Forward mutant of m1; same construct; also called RAP E251K; not shown: N-terminal hexahistidine and S-peptide tags of pET30(+)a
T3 sequence (looked up): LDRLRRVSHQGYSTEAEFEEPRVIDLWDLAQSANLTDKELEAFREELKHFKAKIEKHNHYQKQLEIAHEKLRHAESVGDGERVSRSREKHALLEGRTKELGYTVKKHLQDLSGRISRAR
Protocol: (§3) Solid phase binding assays—Purified, refolded CR protein (1 μg) was bound to Nunc Maxisorp™ 96-well plates in TBS pH 8 supplemented with 5 mM CaCl₂ (TBSC) overnight at 4° C. Wells were washed with TBSC and then blocked with TBSC containing 2% bovine serum albumin (BSA). RAP ligands were then incubated with the immobilized receptor at a range of concentrations for 2 hours in the above blocking buffer supplemented with 0.05% Tween-20 at room temperature. Control wells contained no added ligand. As an additional control, to determine whether the absence of calcium affected binding, 10 mM EGTA was included in the incubation medium for some samples. Wells were washed with TBSTC and bound ligands detected with polyclonal anti-RAP (BP41/42, 1:1,000, BioMarin). Excess primary antibody was removed and wells washed before incubation with the secondary antibody, HRP-conjugated goat anti rabbit IgG (Bio-Rad). After washing, TMB substrate solutions (Bio-Rad) were added to detect HRP. Color development was stopped with 1N HCl. Absorption at 450 nm was measured with a microplate spectrophotometer (Molecular Devices). Data were plotted and Kd values derived by non-linear regression with the assumption of single-site binding (GraphPad Prism).
as §2

RAP d3 H249Y = molecular target: T4, RAP d3 H249Y (human, UniProt P30533 235-353); assay: as above
T4 construct: range 201-319 (mature RAP numbering); Forward mutant of m1; same construct; also called RAP H249Y; not shown: N-terminal hexahistidine and S-peptide tags of pET30(+)a
T4 sequence (looked up): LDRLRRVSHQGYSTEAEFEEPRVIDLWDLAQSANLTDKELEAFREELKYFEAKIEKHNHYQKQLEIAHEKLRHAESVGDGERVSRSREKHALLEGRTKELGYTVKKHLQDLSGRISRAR
Protocol: as §3, §2

MegaRAP1 d3 [4] = molecular target: T1, MegaRAP1 d3; assay: solid-phase assay, coated CR protein (same value as Table 1)

- Kd (MegaRAP1 d3 [1]): 33 nM
- Kd [2]: 114 nM
- Kd (MegaRAP1 d3 [3]): 38 nM
- binding result (RAP d3 E251K): no binding (tested: 100 nM)
- binding result (RAP d3 H249Y): no binding (tested: 100 nM)
- Kd (MegaRAP1 d3 [4]): 38 nM
B1: LRP2 CR89 (receptor)
chain: not shown
notes: domain: CR89; Limits of the fragment are set only by the primers LRP2CR8F and LRP2CR9R; also called YVWR; L2 CR89; not shown: N-terminal hexahistidine and S-peptide tags of pET30(+)a
